Test results reported in article PMC9088182 (Cell reports, 2022).

Molecular target: the molecule itself
Assay: cryo-EM structure

B1: TRPV5 Thr709Asp phosphomimetic mutant (rabbit) (natural protein)
chain: MGACPPKAKGPWAQLQKLLISWPVGEQDWEQYRDRVNMLQQERIRDSPLLQAAKENDLRLLKILLLNQSCDFQQRGAVGETALHVAALYDNLEAATLLMEAAPELAKEPALCEPFVGQTALHIAVMNQNLNLVRALLARGASVSARATGAAFRRSPHNLIYYGEHPLSFAACVGSEEIVRLLIEHGADIRAQDSLGNTVLHILILQPNKTFACQMYNLLLSYDEHSDHLQSLELVPNHQGLTPFKLAGVEGNTVMFQHLMQKRKHVQWTCGPLTSTLYDLTEIDSWGEELSFLELVVSSKKREARQILEQTPVKELVSFKWKKYGRPYFCVLASLYILYMICFTTCCIYRPLKLRDDNRTDPRDITILQQKLLQEAYVTHQDNIRLVGELVTVTGAVIILLLEIPDIFRVGASRYFGQTILGGPFHVIIITYASLVLLTMVMRLTNMNGEVVPLSFALVLGWCSVMYFARGFQMLGPFTIMIQKMIFGDLMRFCWLMAVVILGFASAFHITFQTEDPNNLGEFSDYPTALFSTFELFLTIIDGPANYSVDLPFMYCITYAAFAIIATLLMLNLFIAMMGDTHWRVAQERDELWRAQVVATTVMLERKMPRFLWPRSGICGYEYGLGDRWFLRVENHHDQNPLRVLRYVEAFKCSDKEDGQEQLSEKRPSTVESGMLSRASVAFQTPSLSRTTSQSSNSHRGWEILRRNDLGHLNLGLDLGEGDGEEVYHF
B1: binds.
